Measurements taken from patent US20250313644A1.
Read-outs that look alike come from different tables or passages of the source.

What was measured:
LIGHT [1] = target: LIGHT (UniProt O43557); test: ELISA, coated LIGHT, Ab 100 nM
[2] = target: human TL1A (HuTL1A) (human) (UniProt O95150); test: competition ELISA: antibody dilution mixed 1:1 with Biotin-TL1A, added to coated DcR3 (1 µg/mL), Streptavidin-HRP, OD450; blocked partner of TL1A: DcR3
[3] = target: human TL1A (HuTL1A) (human) (UniProt O95150)
FASL [4] = target: FASL (UniProt P48023); test: ELISA, coated FASL, Ab 1.563 nM
[5] = target: human TL1A (HuTL1A) (human) (UniProt O95150); test: ELISA: biotin-HuTL1A on streptavidin plate, antibody diluted at pH 7.4, HRP-anti-human Fc, OD450
FASL [6] = target: FASL (UniProt P48023); test: ELISA, coated FASL, Ab 25 nM
LT-α [7] = target: T1, LT-α (UniProt P01374); test: ELISA, coated LT-α, Ab 25 nM
T1 sequence (looked up): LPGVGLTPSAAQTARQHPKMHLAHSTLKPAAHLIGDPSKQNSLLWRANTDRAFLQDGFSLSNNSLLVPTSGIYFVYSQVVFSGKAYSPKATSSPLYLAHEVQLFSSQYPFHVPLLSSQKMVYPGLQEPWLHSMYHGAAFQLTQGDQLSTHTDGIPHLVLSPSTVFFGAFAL

LIGHT [8] = target: LIGHT (UniProt O43557); test: ELISA, coated LIGHT, Ab 1.563 nM
LIGHT [9] = target: LIGHT (UniProt O43557); test: ELISA, coated LIGHT, Ab 0.391 nM
LT-α [10] = target: T1, LT-α; test: ELISA, coated LT-α, Ab 6.25 nM
[11] = target: human TL1A (HuTL1A) (human) (UniProt O95150); test: competition ELISA: antibody dilution mixed 1:1 with Biotin-TL1A, added to coated DcR3 (1 µg/mL), Streptavidin-HRP, OD450; blocked partner of TL1A: DcR3; remark: listed apart in the source
LIGHT [12] = target: LIGHT (UniProt O43557); test: ELISA, coated LIGHT, Ab 6.25 nM
FASL [13] = target: FASL (UniProt P48023); test: ELISA, coated FASL, Ab 100 nM
TNFα [14] = target: TNFα (UniProt P01375); test: ELISA, coated TNF-α, Ab 6.25 nM
TNFα [15] = target: TNFα (UniProt P01375); test: ELISA, coated TNF-α, Ab 1.563 nM
TNFα [16] = target: TNFα (UniProt P01375); test: ELISA, coated TNF-α, Ab 0.391 nM
LT-α [17] = target: T1, LT-α; test: ELISA, coated LT-α, Ab 0.000 nM (blank)
LIGHT [18] = target: LIGHT (UniProt O43557); test: ELISA, coated LIGHT, Ab 0.000 nM (blank)
TNFα [19] = target: TNFα (UniProt P01375); test: ELISA, coated TNF-α, Ab 0.000 nM (blank)
TNFα [20] = target: TNFα (UniProt P01375); test: ELISA, coated TNF-α, Ab 25 nM
FASL [21] = target: FASL (UniProt P48023); test: ELISA, coated FASL, Ab 6.25 nM
TNFα [22] = target: TNFα (UniProt P01375); test: ELISA, coated TNF-α, Ab 100 nM
FASL [23] = target: FASL (UniProt P48023); test: ELISA, coated FASL, Ab 0.391 nM
[24] = target: human TL1A (HuTL1A) (human) (UniProt O95150); test: ELISA: biotin-HuTL1A on streptavidin plate, antibody diluted at pH 5.8, HRP-anti-human Fc, OD450
[25] = target: human TL1A (HuTL1A) (human) (UniProt O95150); test: DLS, antigen and antibody mixed in equal moles
LT-α [26] = target: T1, LT-α; test: ELISA, coated LT-α, Ab 0.391 nM
LT-α [27] = target: T1, LT-α; test: ELISA, coated LT-α, Ab 1.563 nM
FASL [28] = target: FASL (UniProt P48023); test: ELISA, coated FASL, Ab 0.000 nM (blank)
[29] = target: human TL1A (HuTL1A) (human) (UniProt O95150); remark: listed apart in the source
LT-α [30] = target: T1, LT-α; test: ELISA, coated LT-α, Ab 100 nM
LIGHT [31] = target: LIGHT (UniProt O43557); test: ELISA, coated LIGHT, Ab 25 nM

human TL1A (HuTL1A) (human), sequence (O95150 57-251 limits assumed): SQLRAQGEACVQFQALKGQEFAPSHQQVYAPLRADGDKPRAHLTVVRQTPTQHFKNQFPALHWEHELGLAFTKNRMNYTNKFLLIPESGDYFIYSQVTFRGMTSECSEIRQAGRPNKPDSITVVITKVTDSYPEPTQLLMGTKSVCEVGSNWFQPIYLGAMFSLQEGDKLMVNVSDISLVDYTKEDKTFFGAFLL
LIGHT, sequence (O43557 74-240 limits assumed): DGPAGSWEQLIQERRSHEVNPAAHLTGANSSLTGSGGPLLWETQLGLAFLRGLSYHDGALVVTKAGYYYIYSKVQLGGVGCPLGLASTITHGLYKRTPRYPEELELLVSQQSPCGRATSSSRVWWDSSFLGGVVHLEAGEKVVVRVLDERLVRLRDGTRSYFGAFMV
TNFα, sequence (P01375 77-233 limits assumed): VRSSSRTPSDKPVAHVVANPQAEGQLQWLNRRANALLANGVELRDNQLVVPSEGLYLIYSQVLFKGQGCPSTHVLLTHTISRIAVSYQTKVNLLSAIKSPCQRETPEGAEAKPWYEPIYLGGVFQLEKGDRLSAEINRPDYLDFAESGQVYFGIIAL
FASL, sequence (P48023 134-281 limits assumed): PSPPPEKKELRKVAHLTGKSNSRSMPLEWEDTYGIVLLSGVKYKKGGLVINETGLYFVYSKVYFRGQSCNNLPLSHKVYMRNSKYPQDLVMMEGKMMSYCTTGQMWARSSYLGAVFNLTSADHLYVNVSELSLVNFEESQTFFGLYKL

OD450 nm (LIGHT [1]): 0.0864 | IC50 (read off the curve) [2]: 30 nM | IC50 (read off the curve); IFN-γ of human T cells with IL-12, IL-18 and exogenous human TL1A [3]: 1 nM | OD450 nm (FASL [4]): 0.0522 | EC50 (read off the curve) [5]: 0.2 nM | OD450 nm (FASL [6]): 0.0643 | OD450 nm (LT-α [7]): 0.0659 | OD450 nm (LIGHT [8]): 0.0741 | OD450 nm (LIGHT [9]): 0.0643 | OD450 nm (LT-α [10]): 0.0646 | IC50 (read off the curve) [11]: 7 µg/mL | OD450 nm (LIGHT [12]): 0.0719 | OD450 nm (FASL [13]): 0.0828 | OD450 nm (TNFα [14]): 0.0514 | OD450 nm (TNFα [15]): 0.0517 | OD450 nm (TNFα [16]): 0.0522 | OD450 nm (LT-α [17]): 0.0803 | OD450 nm (LIGHT [18]): 0.0588 | OD450 nm (TNFα [19]): 0.0612 | OD450 nm (TNFα [20]): 0.0577 | OD450 nm (FASL [21]): 0.0533 | OD450 nm (TNFα [22]): 0.0757 | OD450 nm (FASL [23]): 0.0511 | EC50 (read off the curve) [24]: 0.2 nM | Ave Z-dia (nm) of the antigen-antibody complex [25]: 33.1 nm | OD450 nm (LT-α [26]): 0.0713 | OD450 nm (LT-α [27]): 0.0701 | OD450 nm (FASL [28]): 0.0549 | IC50 (read off the curve); SEAP reporter in HEK293T/DR3-NFκB cells with soluble TL1A, OD655 [29]: 4 nM | OD450 nm (LT-α [30]): 0.0701 | OD450 nm (LIGHT [31]): 0.076
B1: BM2 antibody (Merck/Prometheus TL1A monoclonal antibody PRA023) (antibody, INN chains, looked up, V domains shown)
VH: QVQLVQSGAEVKKPGASVKVSCKASGFDIQDTYMHWVKQRPGQGLEWMGRIDPASGHTKYDPKFQVRVTITRDTSTSTVYLELSSLRSEDTAVYYCARSGGLPDVWGQGTTVTVSS
VL: EIVLTQSPGTLSLSPGERATLSCRASSSVSYMYWYQQKPGQAPRPLIYATSNLASGIPDRFSGSGSGTDFTLTISRLEPEDFAVYYCQQWEGNPRTFGGGTKLEIK
